Test results taken from IntAct's records for PubMed 14532120.

B1: Interferon alpha/beta receptor 1 (Mus musculus), P33896 (parent)
chain: MLAVVGAAALVLVAGAPWVLPSAAGGENLKPPENIDVYIIDDNYTLKWSSHGESMGSVTFSAEYRTKDEAKWLKVPECQHTTTTKCEFSLLDTNVYIKTQFRVRAEEGNSTSSWNEVDPFIPFYTAHMSPPEVRLEAEDKAILVHISPPGQDGNMWALEKPSFSYTIRIWQKSSSDKKTINSTYYVEKIPELLPETTYCLEVKAIHPSLKKHSNYSTVQCISTTVANKMPVPGNLQVDAQGKSYVLKWDYIASADVLFRAQWLPGYSKSSSGSRSDKWKPIPTCANVQTTHCVFSQDTVYTGTFFLHVQASEGNHTSFWSEEKFIDSQKHILPPPPVITVTAMSDTLLVYVNCQDSTCDGLNYEIIFWENTSNTKISMEKDGPEFTLKNLQPLTVYCVQARVLFRALLNKTSNFSEKLCEKTRPGSFSTIWIITGLGVVFFSVMVLYALRSVWKYLCHVCFPPLKPPRSIDEFFSEPPSKNLVLLTAEEHTERCFIIENTDTVAVEVKHAPEEDLRKYSSQTSQDSGNYSNEEEESVGTESGQAVLSKAPCGGPCSVPSPPGTLEDGTCFLGNEKYLQSPALRTEPALLC
B2: Interferon alpha/beta receptor 1 (Homo sapiens), P17181 (parent)
chain: MMVVLLGATTLVLVAVAPWVLSAAAGGKNLKSPQKVEVDIIDDNFILRWNRSDESVGNVTFSFDYQKTGMDNWIKLSGCQNITSTKCNFSSLKLNVYEEIKLRIRAEKENTSSWYEVDSFTPFRKAQIGPPEVHLEAEDKAIVIHISPGTKDSVMWALDGLSFTYSLVIWKNSSGVEERIENIYSRHKIYKLSPETTYCLKVKAALLTSWKIGVYSPVHCIKTTVENELPPPENIEVSVQNQNYVLKWDYTYANMTFQVQWLHAFLKRNPGNHLYKWKQIPDCENVKTTQCVFPQNVFQKGIYLLRVQASDGNNTSFWSEEIKFDTEIQAFLLPPVFNIRSLSDSFHIYIGAPKQSGNTPVIQDYPLIYEIIFWENTSNAERKIIEKKTDVTVPNLKPLTVYCVKARAHTMDEKLNKSSVFSDAVCEKTKPGNTSKIWLIVGICIALFALPFVIYAAKVFLRCINYVFFPSLKPSSSIDEYFSEQPLKNLLLSTSEEQIEKCFIIENISTIATVEETNQTDEDHKKYSSQTSQDSGNYSNEDESESKTSEELQQDFV

Variants of: B1
Details: with fbw1b_human FBXW11, Q9UKB1
Chain of fbw1b_human FBXW11, Q9UKB1 (Q9UKB1 whole entry): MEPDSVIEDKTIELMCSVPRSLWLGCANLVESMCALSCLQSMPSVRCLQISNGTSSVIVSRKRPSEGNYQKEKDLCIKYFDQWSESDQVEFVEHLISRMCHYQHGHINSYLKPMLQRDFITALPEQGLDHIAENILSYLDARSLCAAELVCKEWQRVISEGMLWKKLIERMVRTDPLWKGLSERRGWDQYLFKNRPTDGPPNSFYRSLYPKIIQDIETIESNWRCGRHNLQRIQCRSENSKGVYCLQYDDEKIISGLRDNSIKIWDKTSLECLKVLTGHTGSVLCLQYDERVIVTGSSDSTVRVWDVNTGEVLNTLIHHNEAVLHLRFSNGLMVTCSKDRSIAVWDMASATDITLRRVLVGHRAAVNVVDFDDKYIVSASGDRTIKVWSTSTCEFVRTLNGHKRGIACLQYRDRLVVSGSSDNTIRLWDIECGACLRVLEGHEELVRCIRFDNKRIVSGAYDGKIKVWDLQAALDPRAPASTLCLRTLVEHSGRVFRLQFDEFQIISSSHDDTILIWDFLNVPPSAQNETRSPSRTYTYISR

| effect of a mutation on the interaction | Variant |
| --- | --- |
| disrupting interaction | MLAVVGAAALVLVAGAPWVLPSAAGGENLKPPENIDVYIIDDNYTLKWSSHGESMGSVTFSAEYRTKDEAKWLKVPECQHTTTTKCEFSLLDTNVYIKTQFRVRAEEGNSTSSWNEVDPFIPFYTAHMSPPEVRLEAEDKAILVHISPPGQDGNMWALEKPSFSYTIRIWQKSSSDKKTINSTYYVEKIPELLPETTYCLEVKAIHPSLKKHSNYSTVQCISTTVANKMPVPGNLQVDAQGKSYVLKWDYIASADVLFRAQWLPGYSKSSSGSRSDKWKPIPTCANVQTTHCVFSQDTVYTGTFFLHVQASEGNHTSFWSEEKFIDSQKHILPPPPVITVTAMSDTLLVYVNCQDSTCDGLNYEIIFWENTSNTKISMEKDGPEFTLKNLQPLTVYCVQARVLFRALLNKTSNFSEKLCEKTRPGSFSTIWIITGLGVVFFSVMVLYALRSVWKYLCHVCFPPLKPPRSIDEFFSEPPSKNLVLLTAEEHTERCFIIENTDTVAVEVKHAPEEDLRKYSSQTSQDAGNYSNEEEESVGTESGQAVLSKAPCGGPCSVPSPPGTLEDGTCFLGNEKYLQSPALRTEPALLC [S526A] |

Variants of: B2
Details: with fbw1b_human FBXW11, Q9UKB1

| effect of a mutation on the interaction | Variant |
| --- | --- |
| disrupting interaction | MMVVLLGATTLVLVAVAPWVLSAAAGGKNLKSPQKVEVDIIDDNFILRWNRSDESVGNVTFSFDYQKTGMDNWIKLSGCQNITSTKCNFSSLKLNVYEEIKLRIRAEKENTSSWYEVDSFTPFRKAQIGPPEVHLEAEDKAIVIHISPGTKDSVMWALDGLSFTYSLVIWKNSSGVEERIENIYSRHKIYKLSPETTYCLKVKAALLTSWKIGVYSPVHCIKTTVENELPPPENIEVSVQNQNYVLKWDYTYANMTFQVQWLHAFLKRNPGNHLYKWKQIPDCENVKTTQCVFPQNVFQKGIYLLRVQASDGNNTSFWSEEIKFDTEIQAFLLPPVFNIRSLSDSFHIYIGAPKQSGNTPVIQDYPLIYEIIFWENTSNAERKIIEKKTDVTVPNLKPLTVYCVKARAHTMDEKLNKSSVFSDAVCEKTKPGNTSKIWLIVGICIALFALPFVIYAAKVFLRCINYVFFPSLKPSSSIDEYFSEQPLKNLLLSTSEEQIEKCFIIENISTIATVEETNQTDEDHKKYSSQTSQDAGNYSNEDESESKTSEELQQDFV [S535A] |

Variants of: B2
Details: with fbw1b_human FBXW11, Q9UKB1
Remark: another data set of the same source

| effect of a mutation on the interaction | Variant |
| --- | --- |
| decreasing interaction | MMVVLLGATTLVLVAVAPWVLSAAAGGKNLKSPQKVEVDIIDDNFILRWNRSDESVGNVTFSFDYQKTGMDNWIKLSGCQNITSTKCNFSSLKLNVYEEIKLRIRAEKENTSSWYEVDSFTPFRKAQIGPPEVHLEAEDKAIVIHISPGTKDSVMWALDGLSFTYSLVIWKNSSGVEERIENIYSRHKIYKLSPETTYCLKVKAALLTSWKIGVYSPVHCIKTTVENELPPPENIEVSVQNQNYVLKWDYTYANMTFQVQWLHAFLKRNPGNHLYKWKQIPDCENVKTTQCVFPQNVFQKGIYLLRVQASDGNNTSFWSEEIKFDTEIQAFLLPPVFNIRSLSDSFHIYIGAPKQSGNTPVIQDYPLIYEIIFWENTSNAERKIIEKKTDVTVPNLKPLTVYCVKARAHTMDEKLNKSSVFSDAVCEKTKPGNTSKIWLIVGICIALFALPFVIYAAKVFLRCINYVFFPSLKPSSSIDEYFSEQPLKNLLLSTSEEQIEKCFIIENISTIATVEETNQTDEDHKKYSSQTSQDAGNYSNEDESESKTSEELQQDFV [S535A] |
